Data on 8 molecules can be found in patent US20250368684A1, “NEW EGFRVIII-BINDING PEPTIDES, CONJUGATES AND USES THEREOF” (NANOTHERA BIOSCIENCES, INC., priority 2021, published 2025).

No end group written: not given here. *: point of attachment. FITC = O=C1OC2(c3ccc(O)cc3Oc3cc(O)ccc32)c2ccc(NC(=S)*)cc21; Ahx = NCCCCCC(=O)O

One assay deals with 293T cells. Nature of the assay: Flow cytometry cellular binding of FITC-Ahx-peptides on 293T cells. Particulars: 10 µM FITC-Ahx-peptide, 20 min at RT. Details: species or system human. An excerpt:
(§1) 293T human embryo kidney cells (Sigma; #85120602-1VL), CLTH/EGFR WT cells (Celther; #CL 01010-CLTH) and CLTH/EGFRvIII cells (Celther; #CL 01001-CLTH) were purchased from Sigma and Celther accordingly. CLTH/EGFR WT and CLTH/EGFRvIII cell lines are established from human embryo kidney cells to stably express EGFR WT and EGFRvIII proteins respectively. The three types of cells were maintained in Dulbecco's modified Eagle media (high glucose) supplemented with 10% fetal bovine serum (FBS), 100 U/mL penicillin, […] streptomycin and 1% MEM NEAA. The cells were cultured at 37° C. in a humidified atmosphere containing 5% CO2.
(§2) On FITC-Ahx-peptides. Flow cytometry analysis was also performed to quantitatively analyze the binding affinity of the synthetized peptides to the different cell types. Briefly, 293T, CLTH/EGFR WT and CLTH/EGFRvIII cells (100 000 cells, 500 μL) were plated in 24-well plates and incubated overnight at 37° C. in a humidified atmosphere containing 5% CO2 overnight. […] Cells were analyzed by flow cytometry on a MACSQuant Analyser 16 (Miltenyi Biotec) using the MACS Quantify software to acquire and process the data. LIVE/DEAD™ Fixable dye was excited at 640 nm and fluorescence was collected with the 785/62 nm filter. FITC was excited at 488 nm and fluorescence was collected with the 525/50 nm filter. Viable cells were gated, FITC fluorescence intensity was recorded and the mean fluorescence intensity (MFI) was measured. MFI values were then normalized by substracting MFI from blank cells and dividing by the correction factor determined using a spectrofluorimeter.
Since FITC fluorescence can be impacted by the nature of the amino acids in the peptide sequence and since the conjugation rate of FITC in the peptide synthesis can fluctuate, it was needed to measure a correction factor according to the fluorescence intensity of each peptide. As flow cytometry cannot analyze fluorescence of small molecules, a spectrofluorimeter was used in similar conditions (excitation and emission) to the flow cytometry conditions. […] Linear regressions were determined for each peptide. […]

For assay [1], the target named is T1, EGFR WT cells (expressing EGFR WT) (Homo sapiens, UniProt P00533).
T1 construct: host or cells: CLTH/EGFR WT, established from human embryo kidney cells
Nature of the assay: Flow cytometry cellular binding of FITC-Ahx-peptides on EGFR WT cells. Particulars: 10 µM FITC-Ahx-peptide, 20 min at RT.
From the text: as §1
as §2, with “types.” for “types. Briefly, 293T, CLTH/EGFR WT and CLTH/EGFRvIII cells (100 000 cells, 500 μL) were plated in 24-well plates and incubated overnight at 37° C. in a humidified atmosphere containing 5% CO2 overnight.”, “spectrofluorimeter. […]” for “spectrofluorimeter.”

Assay [2] has as its target T2, EGFRvIII cells (expressing EGFRvIII) (Homo sapiens, UniProt P00533, DELINS30-297G).
T2 construct: host or cells: CLTH/EGFRvIII, established from human embryo kidney cells
Nature of the assay: Flow cytometry cellular binding of FITC-Ahx-peptides on EGFRvIII cells. Particulars: for Normalized MFI vIII: 10 µM FITC-Ahx-peptide, 20 min at RT, EGFRvIII cells.
From the text: as §1, §2
Since FITC fluorescence can be impacted by the nature of the amino acids in the peptide sequence and since the conjugation rate of FITC in the peptide synthesis can fluctuate, it was needed to measure a correction factor according to the fluorescence intensity of each peptide. As flow cytometry cannot analyze fluorescence of small molecules, a spectrofluorimeter was used in similar conditions (excitation and emission) to the flow cytometry conditions.
For orientation: A flow cytometer gives signals particle by particle.

Assay [3] has as its target T3, CLTH/EGFRvIII cells expressing hEGFRvIII (Homo sapiens, UniProt P00533, DELINS30-297G).
T3 construct: host or cells: CLTH/EGFRvIII, established from human embryo kidney cells
Nature of the assay: Flow cytometry binding of phage displayed peptides on hEGFRvIII cells. Conditions: phage displayed peptide, vs hEGFR WT and 293T cells.
From the text: as §1
Cell cultures and flow cytometry experiments with phages or peptides were performed by Institut Mondor de Recherche Biomédicale (IMRB U955, France). […] Anti-IgG1 conjugated to phycoerythrin (PE) (Miltenyi Biotec) was used as a secondary antibody to read the fluorescence of PE. […]
On phages. […] Cells were analyzed by flow cytometry on a MACSQuant Analyser 16 (Miltenyi Biotec) using the MACS Quantify software to acquire and process the data. Viobility™ 405/520 fixable dye was excited at 405 nm and fluorescence was collected with the 525/50 nm filter. PE was excited at 488 nm and fluorescence was collected with the 579/34 nm filter. Viable cells were gated, and PE fluorescence intensity was recorded.

The target in assay [4] is T4, human EGF receptor variant III (EGFRvIII) on CLTH/EGFRvIII cells (human, UniProt P00533 25-1210).
T4 construct: whole, on cells
Description: flow cytometry, phage on CLTH/EGFRvIII cells, anti-M13-biotin plus anti-biotin-PE.

Assay [5] concerns the target human EGF receptor variant III (EGFRvIII) on CLTH/EGFRvIII cells (human) (UniProt P00533). Description: flow cytometry, normalized MFI on EGFRvIII cells over normalized MFI on EGFR WT cells.
Assay [6] shares this target. Description: flow cytometry, 10 uM FITC-Ahx-peptide, 20 min RT, CLTH/EGFRvIII cells; MFI minus blank cells, divided by correction factor.

As for “FITC-Ahx-VLGREEWSTSW-CONH2: VLGREEWSTSYW conjugated with FITC at the N-terminus via 6-aminohexanoic acid (Ahx) linker”, in the assay on 293T cells, the “Normalized MFI 293T” value is 5.1.
Take “FITC-Ahx-FALGEA-CONH2: literature control peptide FALGEA (SEQ ID NO:5) linked to the FITC-Ahx tag ({FITC-Ahx}-FALGEA-NH2; SMILES CC(C)C[C@H](NC(=O)[C@H](C)NC(=O)[C@H](Cc1ccccc1)NC(=O)CCCCCNC(=S)Nc1ccc2c(c1)C(=O)OC21c2ccc(O)cc2Oc2cc(O)ccc21)C(=O)NCC(=O)N[C@@H](CCC(=O)O)C(=O)N[C@@H](C)C(N)=O)”: the “Normalized MFI WT” value in assay [1] was found to be 0.7. The “Normalized MFI vIII” value in assay [2] is listed as 1.8. Moreover, in assay [2] (normalized MFI of vIII cell line over WT cell line), the “Normalized MFI ratio VIII/WT” value was found to be 2.6. Moreover, the “Normalized MFI 293T” value in the assay on 293T cells is 0.9.
As for “FITC-Ahx-YHWYGYTPENVI-CONH2: literature control peptide YHWYGYTPENVI (SEQ ID NO:6) linked to the FITC-Ahx tag ({FITC-Ahx}-YHWYGYTPENVI-NH2; SMILES CC[C@H](C)[C@H](NC(=O)[C@@H](NC(=O)[C@H](CC(N)=O)NC(=O)[C@H](CCC(=O)O)NC(=O)[C@@H]1CCCN1C(=O)[C@@H](NC(=O)[C@H](Cc1ccc(O)cc1)NC(=O)CNC(=O)[C@H](Cc1ccc(O)cc1)NC(=O)[C@H](Cc1c[nH]c2ccccc12)NC(=O)[C@H](Cc1c[nH]cn1)NC(=O)[C@H](Cc1ccc(O)cc1)NC(=O)CCCCCNC(=S)Nc1ccc2c(c1)C(=O)OC21c2ccc(O)cc2Oc2cc(O)ccc21)[C@@H](C)O)C(C)C)C(N)=O)”, the “Normalized MFI WT” value in assay [1] is reported as 4.5. Further, the “Normalized MFI vIII” value in assay [2] worked out at 9.7. The “Normalized MFI 293T” value with 293T cells turned out to be 7.6.
Take “LEKGNTLSTSTV (phage displayed; Peptide selected from the NGS analysis, not showing specific binding to hEGFRvIII cells in flow cytometry) [peptide selected from NGS analysis of biopanning]”: the “specific binding to hEGFRvIII” value in assay [3] is reported as “did not show specific binding”.
The same measure, in the same setting: in the case of “NESGITRIALQD (Peptide selected from the NGS analysis, not showing specific binding to hEGFRvIII cells in flow cytometry) [peptide selected from NGS analysis of biopanning]” it was “did not show specific binding”.

B1: LEKGNTLSTSTV phage displayed peptide (peptide)
peptide: LEKGNTLSTSTV
modifications: also: displayed on M13 phage coat protein
notes: not shown: M13 coat protein of the Ph.D.-12 library that carries the peptide
With B1, the binding result in assay [4] is recorded as “no binding”.

B2: NESGITRIALQD phage displayed peptide (peptide)
peptide: NESGITRIALQD
modifications: also: displayed on M13 phage coat protein
notes: as for B1
Consider B2, for which the binding result in assay [4] is given as “no binding”.

B3: FITC-Ahx-FALGEA-CONH2 (peptide)
peptide: {FITC-Ahx}-FALGEA-NH2
SMILES: CC(C)C[C@H](NC(=O)[C@H](C)NC(=O)[C@H](Cc1ccccc1)NC(=O)CCCCCNC(=S)Nc1ccc2c(c1)C(=O)OC21c2ccc(O)cc2Oc2cc(O)ccc21)C(=O)NCC(=O)N[C@@H](CCC(=O)O)C(=O)N[C@@H](C)C(N)=O
In the case of B3, the Normalized MFI ratio vIII/WT in assay [5] was found to be 2.6. The same molecule registered a Normalized MFI in assay [6] of 1.8.
